Experimental data as given in paper PMC5656322, “BAK1 is involved in AtRALF1-induced inhibition of root cell expansion” (PLoS Genetics, 2017).
Where no end group is shown, it is not given here.

Target: T1, BAK1-ECD (Arabidopsis thaliana, UniProt Q94F62)
T1 construct: Isothermal titration calorimetry (ITC) of the extracellular domain of BAK1 (BAK1-ECD) vs. AtRALF1; made in house; host or cells: Escherichia coli Rosetta DE3 or BL21
T1 sequence (Q94F62 26-225 limits assumed): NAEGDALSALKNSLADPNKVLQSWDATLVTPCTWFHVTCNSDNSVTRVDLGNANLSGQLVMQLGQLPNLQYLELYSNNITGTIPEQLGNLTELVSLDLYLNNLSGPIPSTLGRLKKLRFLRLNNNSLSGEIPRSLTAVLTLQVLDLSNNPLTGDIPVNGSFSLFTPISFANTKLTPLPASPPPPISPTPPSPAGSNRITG
Experiment: Isothermal titration calorimetry (ITC)
Assay type: binding
Excerpt: Fig 6 AtRALF1 interacts physically with BAK1 protein. (A) The active AtRALF1 peptide interacts with the extracellular domain (ECD) of BAK1 (BAK1-ECD) in yeast. The AtRALF1 protein fused to the GAL4 DNA-binding domain (AtRALF1-pGBKT7) was used as bait to test its interaction with the extracellular domain of the proteins fused to the GAL4 activation domain (pGADT7): BAK1 (BAK1-ECD), BAK7 (BAK7-ECD), BRI1 (BRI1-ECD) and FLS2 (FLS2-ECD). (B) Blueprint showing the truncated proteins from the extracellular domain of BAK1 tested in the two-hybrid assay. The extracellular domain of BAK1 comprises leucine zippers (LZ), 5 leucine rich-regions (LRRs) and a proline-rich region (pro-rich). (C) AtRALF1-pGBKT7 was used as bait to test its interaction with truncated proteins fused to the GAL4 activation domain (pGADT7). The transformed yeast cells in (A) and (C) were selected on a synthetic complete medium lacking leucine, tryptophan and histidine to test interactions. (D, E) Co-immunoprecipitation (Co-IP) in vitro between the extracellular domain of BAK1 (HA-BAK1-ECD) and AtRALF1 recombinant purified proteins. HA-BAK1-ECD was detected with an anti-HA antibody. AtRALF1 was detected with an anti-RALF antibody. (F) Recombinant AtRALF1 is co-immunoprecipitated with the BAK1-GFP protein expressed in tobacco. BAK1-GFP was detected with an anti-GFP antibody. […] (G) Isothermal titration calorimetry (ITC) of the extracellular domain of BAK1 (BAK1-ECD) vs. AtRALF1 in ITC buffer (15 mM HEPES, pH 6.8). ITC experiments were simulated using 28 injections of BAK1-ED (0.7 mM, vol 10 μL) on AtRALF1 (0.03 mM vol cell = 1.4 mL) at 25°C. Kd = dissociation constant; N = number of binding sites.
ITC was performed using a VP ITC with a 1.4 ml standard cell and a 293 μl titration syringe. Proteins were dissolved in ITC buffer (15 mM HEPES (4-(2-hydroxyethyl)-1-piperazineethanesulfonic acid, pH 6.8) and the experiments were performed at 25°C. Molar protein concentration for BAK1-ECD and AtRALF1 were calculated using their molecular weight of 25,654.04 and 7,631 Da, respectively (determined by HPLC). The concentrations for the complex titrations were 0.7 mM of protein (BAK1-ECD) in the syringe and 0.03 mM of ligand (AtRALF1) in the cell at time intervals of 300 s (28 injections of volume 10 μl) to ensure that the titration peak returned to the baseline.
ITC data were corrected for the heat of dilution by subtracting the mixing enthalpies for titrant solution injections into protein free ITC buffer. Data were analyzed using the Origin software (version 7.0) as provided by the manufacturer. Independent experiments were repeated three times with similar results.

## AtRALF1: root-specific RALF isoform in Arabidopsis; recombinant peptide hormone produced in E. coli (ATTKYISYQSLKRNSVPCSRRGASYYNCQNGAQANPYSRGCSKIARCRS; ends and bridges not checked; cysteine pairing not given here)
ITC experiment 1 of 3
  number of binding sites: 1.27
ITC experiment 2 of 3
  number of binding sites: 1.5
Representative experiment, Fig 6G, 15 mM HEPES, pH 6.8, 25°C
  N (number of binding sites): 1.27 sites

## RALF1(9–49): inactive AtRALF1 peptide which has a deletion of the first 8 amino acids (QSLKRNSVPCSRRGASYYNCQNGAQANPYSRGCSKIARCRS; ends and bridges not checked; cysteine pairing not given here; UniProt Q9SRY3 80-120, looked up, fragment)
BAK1-ECD 0.7 mM into 0.03 mM peptide, 15 mM HEPES, pH 6.8, 25°C
  interaction with BAK1-ECD by ITC: no interaction between the inactive analog and BAK1-ECD
